Results published in paper PMC9371974 (Nature Structural & Molecular Biology, 2022).

Tests used:
[1] = target: globular domain fragment of recombinant human PrP (rhPrP121-230) (Homo sapiens, UniProt P04156); assay: ELISA; conditions: both partners purified
[2] = target: recombinant mouse PrP flexible tail fragment (rmPrP23-110) (Mus musculus, UniProt P04925); assay: ELISA; conditions: both partners purified

B1:  (antibody, V domains shown)
VH: QVQLQQSGTELVMPGASVKMSCKASGYTFTDYWMHWVKQRPGQGLEWIGSIDPSDSYTSHNEKFKGKATLTVDESSSTAYMQLSSLTSEDSAVYFCSRSGYGYAAMEYWGQGTSVTVSS
VL: DIVLTQSPAILSVSPGERVSFSCRASQNIGTSIHWYQQRTNESPRLIIKYASESISGIPSRFSGSGSGTDFTLSINSVESEDIADYYCQQSNTWPYTFGGGTKLELK
notes: also called holo-Y104A; hcY104A IgG holoantibody
binding result [1]: binds | binding result [2]: no binding
